Kd data for 1 molecule are collected here from paper PMC5839545 (2018).

This test deals with CENP-T (Homo sapiens, UniProt Q96BT3). In words: SW-FCCS.
Chain of CENP-T (Q96BT3 whole entry): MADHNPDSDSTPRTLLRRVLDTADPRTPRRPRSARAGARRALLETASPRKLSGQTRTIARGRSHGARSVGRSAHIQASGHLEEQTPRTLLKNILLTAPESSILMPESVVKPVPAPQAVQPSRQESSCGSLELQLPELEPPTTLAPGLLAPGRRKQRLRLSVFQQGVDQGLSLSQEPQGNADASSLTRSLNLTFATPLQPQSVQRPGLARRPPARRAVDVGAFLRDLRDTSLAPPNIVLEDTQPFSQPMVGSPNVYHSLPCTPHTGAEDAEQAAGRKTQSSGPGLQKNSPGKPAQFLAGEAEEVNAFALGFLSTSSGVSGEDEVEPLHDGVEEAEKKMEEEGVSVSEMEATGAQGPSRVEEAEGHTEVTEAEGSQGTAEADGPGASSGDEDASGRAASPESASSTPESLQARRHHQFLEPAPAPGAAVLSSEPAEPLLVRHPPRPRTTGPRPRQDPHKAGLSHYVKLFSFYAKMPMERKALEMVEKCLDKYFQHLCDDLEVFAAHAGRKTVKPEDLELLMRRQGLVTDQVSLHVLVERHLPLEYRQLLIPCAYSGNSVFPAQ

B1: Spc24 (protein)
chain: MAAFRDIEEVSQGLLSLLGANRAEAQQRRLLGRHEQVVERLLETQDGAEKQLREILTMEKEVAQSLLNAKEQVHQGGVELQQLEAGLQEAGEEDTRLKASLLQLTRELEELKEIEADLERQEKEVDEDTTVTIPSAVYVAQLYHQVSKIEWDYECEPGMVKGIHHGPSVAQPIHLDSTQLSRKFISDYLWSLVDTEW
B1: binding was characterised by a dissociation constant (Kd) of 1800 nM.
